Blank lines part the entries; values can stand above or below the binder they belong to.
Target: T1, human IL-10 receptor (IL-10R) on T cells and B cells of human whole blood (human, UniProt Q13651 22-578; Q08334 20-325)
T1 sequence (looked up) 1: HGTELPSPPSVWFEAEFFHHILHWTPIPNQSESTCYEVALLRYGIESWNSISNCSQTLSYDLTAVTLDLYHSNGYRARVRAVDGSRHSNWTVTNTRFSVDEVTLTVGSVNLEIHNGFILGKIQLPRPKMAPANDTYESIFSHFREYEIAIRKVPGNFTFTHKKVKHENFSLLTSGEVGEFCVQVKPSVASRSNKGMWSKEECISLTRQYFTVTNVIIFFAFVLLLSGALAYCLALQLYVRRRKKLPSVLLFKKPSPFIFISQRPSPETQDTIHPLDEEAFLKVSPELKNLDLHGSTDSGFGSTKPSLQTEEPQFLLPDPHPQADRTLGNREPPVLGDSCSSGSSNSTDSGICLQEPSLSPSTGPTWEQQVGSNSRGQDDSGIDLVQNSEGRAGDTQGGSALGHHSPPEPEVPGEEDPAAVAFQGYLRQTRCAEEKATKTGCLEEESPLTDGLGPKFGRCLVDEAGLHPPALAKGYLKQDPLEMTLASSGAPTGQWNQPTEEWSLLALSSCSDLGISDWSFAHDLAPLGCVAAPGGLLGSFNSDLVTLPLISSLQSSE
T1 sequence (looked up) 2: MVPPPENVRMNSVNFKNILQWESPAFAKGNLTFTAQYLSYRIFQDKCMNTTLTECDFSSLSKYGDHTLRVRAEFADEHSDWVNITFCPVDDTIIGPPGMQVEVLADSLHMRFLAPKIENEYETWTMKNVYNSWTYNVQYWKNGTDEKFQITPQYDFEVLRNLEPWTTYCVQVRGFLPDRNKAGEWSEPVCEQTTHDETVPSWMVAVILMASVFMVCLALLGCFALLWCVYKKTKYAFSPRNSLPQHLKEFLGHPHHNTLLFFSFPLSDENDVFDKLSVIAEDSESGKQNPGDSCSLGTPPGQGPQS
Experiment: cell-based or functional assay

STAT3 phosphorylation (pY705), flow cytometry, CD3+ T cells in human whole blood, EC50: 47.7 pM | STAT3 phosphorylation (pY705), flow cytometry, CD19+ B cells in human whole blood, EC50: 116 pM
B1: wildtype human IL-10 (ligand)
chain: SPGQGTQSENSCTHFPGNLPNMLRDLRDAFSRVKTFFQMKDQLDNLLLKESLLEDFKGYLGCQALSEMIQFYLEEVMPQAENQDPDIKAHVNSLGENLKTLRLRLRRCHRFLPCENKSKAVEQVKNAFNKLQEKGIYKAMSEFDIFINYIEAYMTMKIRN

STAT3 phosphorylation (pY705), flow cytometry, CD3+ T cells in human whole blood, EC50: 222 pM | STAT3 phosphorylation (pY705), flow cytometry, CD19+ B cells in human whole blood, EC50: 352 pM
B2: Fc-IL-10 (human IgG1.3f Fc domain - GGGGSSGGGGSGGGGSGGGGS linker - wildtype human IL-10) (Fc fusion)
chain: DKTHTCPPCPAPEAEGAPSVFLFPPKPKDTLMISRTPEVTCVVVDVSHEDPEVKFNWYVDGVEVHNAKTKPREEQYNSTYRVVSVLTVLHQDWLNGKEYKCKVSNKALPAPIEKTISKAKGQPREPQVYTLPPSREEMTKNQVSLTCLVKGFYPSDIAVEWESNGQPENNYKTTPPVLDSDGSFFLYSKLTVDKSRWQQGNVFSCSVMHEALHNHYTQKSLSLSPGGGGGSSGGGGSGGGGSGGGGSSPGQGTQSENSCTHFPGNLPNMLRDLRDAFSRVKTFFQMKDQLDNLLLKESLLEDFKGYLGCQALSEMIQFYLEEVMPQAENQDPDIKAHVNSLGENLKTLRLRLRRCHRFLPCENKSKAVEQVKNAFNKLQEKGIYKAMSEFDIFINYIEAYMTMKIRN

— patent US20230087600A1 (Bristol-Myers Squibb, published 2023)
